Data on one substance can be found in PMC8716136.

This assay deals with CaMKIIδC-GFP T287A (phosphoresistant) (R. norvegicus). Nature of the assay: FRET or BRET. (In BRET a luciferase serves as donor, and the signal depends on an acceptor being close.)

As for “unlabeled CaM (calmodulin) (from UniProt P0DP23 1-149) (natural protein)”, the donor fluorescence (FDD) after 5 uM unlabeled CaM, % of initial intensity is 80%.
